Source: US20140314832A1 (SHANGHAI PULMONARY HOSPITAL TONGJI UNIVERSITY SCHOOL OF …, published 2014)
Where a chain is given by its changes, count along the chain named.

B1: Nb9 (VHH)
VHH: MQAQLAGQLQLVESGGGLVQPGGSLRLSCTASEFTLDYHSIGWFRQAPGKEREGVSCISYGDGTTFYTDSVKGRFTISRDNAKNTVTLQMNSLKPEDTAVYYCAASPGRLLLFRLCMSEDEYDFWGQGTQVTVSSEPKTPKPQGPRGLAAAGAPVPYPDPLEPRAA
notes: Alpaca VHH clone; screened as phage clone; also called N0; rSPA-Nb
B2: Nb19 (VHH)
VHH: B1 VHH
notes: Alpaca VHH clone; screened as phage clone; also called N0; 19; rSPA-Nb
B3: Nb48 (VHH)
VHH: MQAQLAGQLQLVESGGGLVEVGESLRLSCVALGFTLDGYAIGWFRQAPGKEREKISCISSTGDSTNYDDSVKGRFTISRDTAKSTVFLQMNNLIPEDTAIYYCGADLLARCGRVWYFPPDLNYRGQGTQVTVSSAHHSEDPGPRGLAAAGAPVPYPDPLEPRAA
notes: Alpaca VHH clone; screened as phage clone; also called N0; 48; rSPA-Nb
B4: Nb11 (VHH)
VHH: MQAQLAGQLQLVESGGGLVQPGGSLRLSCVVSGVTFNNYGMTWVRQAPGKGLEWISTIYSNGHTYYADFVKGRFTISRDNAKNTLYLQMISLKPEDTAKYYCRLTGETYRGQGTQVTVSSEPKTRKPQGPRGLAAAGAPVPYPDPLEPRAA
notes: Alpaca VHH clone; screened as phage clone; also called N0; 11; rSPA-Nb
B5: Nb18 (VHH)
VHH: B4 VHH with R26M, F36I, N37S, F69S, I76A, I90N, R103K, Y109H, R125P
notes: Alpaca VHH clone; screened as phage clone; also called N0; 18; rSPA-Nb
B6: Nb32 (VHH)
VHH: MQAQLAGQLQLVESGGGLVQPGGSLRLSCTASKFHLDSYAVAWFRQTPGKEREAVSFINTSDDVTYFADSVKGRFTISRDNSKNTVYLQMNVLKPEDTSVYVCAAVRSPGPTGPSMQPMWSVPDLYDYWGQGTQVTVSSAHHSEDPGPRGLAAAGAPVPYPDPLEPRAA
notes: Alpaca VHH clone; screened as phage clone; also called N0; 32; rSPA-Nb
B7: Nb27 (VHH)
VHH: MQAQLAVQLQLVESGGGLVQPGGSLRLSCEVSGSRGSIYFSGWYRQAPGKQRELVASITSGGTTNYADSVKGRFTISRDNAKNTVYLQMNSLKPEDTAVYYCNIGRYGLGGSWGQGTQVTVSSEPKTPKPQGPRGLAAAGAPVPYPDPLEPRAA
notes: Alpaca VHH clone; screened as phage clone; also called N0; 27; rSPA-Nb
B8: Nb22 (VHH)
VHH: MQAQLAGQLQLVESGGGLVQPGGSLRLSCAASGRAFSVYAVGWYRQPPGKQRELVASITDGGSTNYADSVKGRFTVSRDNARNTAYLDMNSLKVEDTAVYYCNANYGGSVLYNYWGPGTQVTVSTEPKTPKPQGPRGLAAAGAPVPYPDPLEPRAA
notes: Alpaca VHH clone; screened as phage clone; also called N0; 22; rSPA-Nb
B9: Nb3 (VHH)
VHH: MQAQLAVQLQLVESGGGLVQPGGSLRLSCVVSGVTFNNYGMSWVRQAPGKGLEWISSIYSNGHTYSADSVKGRFTISRDNANNTLYLQMNSLKPEDTANYYCKLVGETHRGQGTQVTVSSEPNTPKPQGPRGLAAAGAPVPYPDPLEPRAAYTVESCLA
notes: as for B1
B10: Nb47 (VHH)
VHH: MQAQLAGQLQLVESGGGRVQAGGSLTLSCAASGDIFTLASMGWYREDLHKKRELVAQLMSDGTANYGDSVKGRVTISRDDVDTTVHLRMNTLQPSDTGEYFCYIHTSREITWGRGTQVTVSQGESSAPQSSAPQATVSSAHHSEDPGPRGLAAAGAPVPYPDPLEPRAA
notes: Alpaca VHH clone; screened as phage clone; also called N0; 47; rSPA-Nb
B11: Nb34 (VHH)
VHH: MQAQLAVQLQLVESGGGTVQPGGSLNLSCVTSGFTFSRHDMSWVRQAPGKGPEWISGIGTSGTSGRYASSVKGRFTISRDNAKDTLYLQMDSLKPEDTGLYYCTTGGVYSAYVQPRGKGTQVTVSSAHHSEDPGPRGLAAAGAPVPYPDPLEPRAA
notes: Alpaca VHH clone; screened as phage clone; also called N0; 34; rSPA-Nb
B12: Nb36 (VHH)
VHH: MQAQLAVQLQLVESGGGLVQPGGSLRLSCAASGRAFSVYAVGWYRQIPGNQREMVAAISSGGNTKYSDSVKGRFTVSSEPKTPKPQGPRGLAAAGAPVPYPDPLEPRAA
notes: screened as phage clone; also called N0; 36; rSPA-Nb
B13: Nb1 (VHH)
VHH: MQAQLAGQLQLVESGGGLVQPGGSLKLSCTASETTFEIYPMAWYRQAPGKQRELVAGINMISSTKYIDSVKGRFTISRDNDKNTMYLQMNSLKPEDTAVYYCNLDTTMVEGVEYWGQGTQVTVSSAHHSEDPGPRGLAAAGAPVPYPDPLEPRAA
notes: Alpaca VHH clone; screened as phage clone (pCANTAB 5E); also called N0; rSPA-Nb
B14: Nb41 (VHH)
VHH: MQAQLAGQLQLVESGGGMVQPGGSLRLSCAASGFIFSRYDMGWVRQTPGKGREWVSGINSGGGRTYYADSVKGRFTISRDDDKATLYLSMDGLKPEDTALYHCVRFTVKTPQGYYYLNDFDYWGQGTQVTVSSEPKTPKPQGPRGLAAAGAPVPYPDPLEPRAA
notes: Alpaca VHH clone; screened as phage clone; also called N0; 41; rSPA-Nb
B15: Nb45 (VHH)
VHH: MQAQLAVQLQLVESGGGLVQAGGSLRLSCVASGSMFNFYGMAWYRQAPGKQRELVASIDSEGRTTNYPDSLKGRFTISRDDAKSTAYLQMNNLIPDDTAVYYCNAFRGRMYDYWGQGTQVTVSSEPKTPKPQGPRGLAAAGAPVPYPDPLEPRAA
notes: Alpaca VHH clone; screened as phage clone; also called N0; 45; rSPA-Nb
B16: Nb43 (VHH)
VHH: MQAQLAGQLQLVESGGGLVQIGGSLRLSCAASGSDFSIYHMGWYRQAPGKQRELVAAITSGGSTNYADSVKGRFTISSDNAKNTVYLQMNSLKPEDTAVYYCNADGVPEYSDYASGPVYWGQGTQVTVSSAHHSEDPGPRGLAAAGAPVPYPDPLEPRAA
notes: Alpaca VHH clone; screened as phage clone; also called N0; 43; rSPA-Nb
B17: Nb28 (VHH)
VHH: MQAQLAGQLQLVESGGGLVQPGGSLRLSCEASGFTFDDYAIGWFRQAPGKEREEVSCISHNGGTTNYADSVKGRFSISRDNAKNTVYLQMNGLKPEDTANYYCAGARSGLCVFFELQDYDYWGQGTQVTVSSAHHSEDPGPRGLAAAGAPVPYPDPLEPRAA
notes: Alpaca VHH clone; screened as phage clone; also called N0; 28; rSPA-Nb
B18: Nb17 (VHH)
VHH: MQAQLAVQLQLVESGGGLVQPGGSLRLSCVVSGVTISNYGMSWVRQAPGKGLEWISTIYSNGHTYSADSVKGRFTISRDNAKNTLYLQMNSLKPEDTAKYYCKLVGETHRGQGTQVTVSSEPKTPKPQGPRGLAAAGAPVPYPDPLEPRAA
notes: Alpaca VHH clone; screened as phage clone, then cloned into PET-30a, expressed in E. coli BL21 (DE3), nickel-purified, 17 kDa, detected with anti-His; also called N0; 17; rSPA-Nb

The binders below were run against T1, natural SP-A in rat lung tissue (rat, UniProt P08427 21-248) (assay: immunohistochemistry (method of Example 6, rat lung tissue)).
T1 construct: The immunohistochemistry is done on rat lung tissue; also called natural SP-A in the lung tissue

Row | Binder | binding result
1 | B1 | binds
2 | B2 | binds
3 | B3 | binds
4 | B4 | binds
5 | B5 | binds
6 | B6 | binds

These binders were tested against T2, rat pulmonary surfactant protein A (rSP-A), recombinant (rat (Rattus norvegicus), UniProt P08427 21-248, limits assumed) (assay: indirect phage ELISA on coated rSP-A, OD 450 nm).
Procedure: (1) Single clonies obtained from the three rounds of selections and grown on 2YTAG plates were inoculated into the 72-well culture plate at 30° C., and cultured with shaking overnight. (2) 400 ul of M13K07 helper phage was put in each well of another 72-well culture plate (labeled P1 Plate) the next day. (3) 40 ul of cultured medium were taken from each well of the Master Plate, which was cultured overnight, and put in each well of the P1 Plate, and incubated at 37° C. with shaking overnight. The culture supernatant was prepared by centrifugation at 1500 g for 20 minutes set aside, and the recombinant antibody was obtained. (4) A 96-well microtiter plate was coated with rSP-A. (5) 160 ul of recombinant antibody was mixed with 40 μL of MPBS, incubated for 20 minutes at room temperature. It was then added to blocked microtiter wells and reacted for 2 hours at 37° C. (6) Washing and adding HRP secondary antibody: HRP-labeled antibody against M13KO7 was diluted 1:4000 in PBS, 200 ul of that was added to each well, and incubated and reacted for 1 hour at 37° C. (7) 200 ul TMB substrate solution was added to each well, incubated at 37° C. for about 45 minutes to develop the image, 100 ul of stop solution was added to each well to stop the development process, and measurements were taken at 450 nm. Preliminary screening was conducted to select positive clones binding to rSP-A ith specificity.

Row | Binder | affinity value relative to negative control
7 | B7 | 3 fold over negative control
8 | B8 | 3 fold over negative control
9 | B3 | 3 fold over negative control
10 | B9 | 3 fold over negative control
11 | B10 | 3 fold over negative control
12 | B11 | 3 fold over negative control
13 | B4 | 3 fold over negative control
14 | B12 | 3 fold over negative control
15 | B13 | 3 fold over negative control
16 | B14 | 3 fold over negative control
17 | B6 | 3 fold over negative control
18 | B15 | 3 fold over negative control
19 | B16 | 3 fold over negative control
20 | B17 | 3 fold over negative control

The binders below were run against T1, natural SP-A in rat lung tissue (assay: immunohistochemistry on rat lung tissue slices, HIS-IgG-HRP secondary).
From the text: Fresh tissues from the lung, heart, liver, spleen, kidney, muscle of rat were fixed and sliced, and diluted primary antibody (Nb6, Nb17 for the experimental groups, SPA polyclonal antibody (SPA-poly-ant) as a positive control group, and alliinase as a negative control group) was dropped on. The secondary antibody was HIS-IgG-HRP. […] The binding effect of Nb17 was similar to that of SPA-poly-ant, while Nb6 had weaker binding effect than Nb 17, as there is differneces in the amino acid sequence at the antigen binding region between these two. All three antibodies had no obvious binding effect with rat heart, liver, spleen, kidney, muscle tissues, nor had the negative control group (FIG. 6).

Row | Binder | binding result
21 | B18 | binds

These binders were tested against T2, rat pulmonary surfactant protein A … (assay: ELISA of purified nanobody on rSP-A, OD450).

Row | Binder | OD450 relative to negative control
22 | B3 | 5 fold over negative control
23 | B4 | 5 fold over negative control
24 | B12 | 5 fold over negative control
25 | B6 | 5 fold over negative control
